Measurements taken from IntAct's records for PubMed 32296183.

Legend:
gpx8_human GPX8 = target: T1, gpx8_human GPX8 (UniProt Q8TED1)
T1 sequence: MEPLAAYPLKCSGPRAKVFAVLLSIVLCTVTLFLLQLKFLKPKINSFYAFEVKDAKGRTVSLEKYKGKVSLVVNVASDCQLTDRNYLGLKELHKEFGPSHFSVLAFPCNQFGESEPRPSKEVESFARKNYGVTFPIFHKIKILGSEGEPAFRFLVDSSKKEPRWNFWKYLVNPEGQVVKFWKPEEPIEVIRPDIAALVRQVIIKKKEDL

ergi3_human ERGIC3 = ergi3_human ERGIC3 (UniProt Q9Y282)
lrc4c_human LRRC4C = target: T2, lrc4c_human LRRC4C (UniProt Q9HCJ2)
T2 sequence: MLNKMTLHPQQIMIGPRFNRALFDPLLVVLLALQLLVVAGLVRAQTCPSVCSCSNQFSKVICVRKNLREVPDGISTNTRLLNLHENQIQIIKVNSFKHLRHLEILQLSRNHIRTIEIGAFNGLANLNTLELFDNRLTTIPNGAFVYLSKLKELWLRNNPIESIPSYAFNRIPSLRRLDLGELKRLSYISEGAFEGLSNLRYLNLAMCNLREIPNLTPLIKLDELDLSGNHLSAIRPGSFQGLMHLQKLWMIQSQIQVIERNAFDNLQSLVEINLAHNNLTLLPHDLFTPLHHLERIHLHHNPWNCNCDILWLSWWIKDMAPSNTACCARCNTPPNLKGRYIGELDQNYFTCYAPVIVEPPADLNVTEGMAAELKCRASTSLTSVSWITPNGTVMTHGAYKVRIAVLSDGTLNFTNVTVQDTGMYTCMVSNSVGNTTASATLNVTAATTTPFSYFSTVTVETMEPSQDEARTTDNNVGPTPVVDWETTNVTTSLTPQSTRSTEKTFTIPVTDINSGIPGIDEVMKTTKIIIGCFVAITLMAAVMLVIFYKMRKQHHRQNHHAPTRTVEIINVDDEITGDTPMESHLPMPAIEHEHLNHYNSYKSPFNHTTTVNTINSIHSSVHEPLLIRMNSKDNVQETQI

comt_human COMT = comt_human COMT (UniProt P21964)
tmem9_human TMEM9 = target: T3, tmem9_human TMEM9 (UniProt Q9P0T7)
T3 sequence: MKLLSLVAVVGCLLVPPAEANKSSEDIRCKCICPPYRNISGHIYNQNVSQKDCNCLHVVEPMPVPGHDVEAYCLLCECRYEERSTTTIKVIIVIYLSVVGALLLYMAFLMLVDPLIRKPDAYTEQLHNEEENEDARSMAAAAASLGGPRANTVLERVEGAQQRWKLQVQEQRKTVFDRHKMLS

cxa5_human GJA5 = cxa5_human GJA5 (UniProt P36382)
FAM209A = target: T4, FAM209A (UniProt Q5JX71)
T4 sequence: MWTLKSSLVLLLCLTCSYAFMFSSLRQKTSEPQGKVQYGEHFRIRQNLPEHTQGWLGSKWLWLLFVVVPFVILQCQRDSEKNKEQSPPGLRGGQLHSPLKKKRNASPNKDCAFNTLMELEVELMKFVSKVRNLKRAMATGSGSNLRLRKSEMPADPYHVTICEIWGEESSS

cisd2_human CISD2 = target: T5, cisd2_human CISD2 (UniProt Q8N5K1)
T5 sequence: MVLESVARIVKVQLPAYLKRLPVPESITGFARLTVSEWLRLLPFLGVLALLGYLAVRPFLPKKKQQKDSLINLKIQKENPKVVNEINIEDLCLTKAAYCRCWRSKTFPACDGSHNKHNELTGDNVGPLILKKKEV

tm52b_human TMEM52B = tm52b_human TMEM52B (UniProt Q4KMG9)

- effect of a mutation on the interaction (gpx8_human GPX8): with no effect
- effect of a mutation on the interaction (ergi3_human ERGIC3): with no effect
- effect of a mutation on the interaction (lrc4c_human LRRC4C): with no effect
- effect of a mutation on the interaction (comt_human COMT): with no effect
- effect of a mutation on the interaction (tmem9_human TMEM9): with no effect
- effect of a mutation on the interaction (cxa5_human GJA5): with no effect
- effect of a mutation on the interaction (FAM209A): with no effect
- effect of a mutation on the interaction (cisd2_human CISD2): with no effect
- effect of a mutation on the interaction (tm52b_human TMEM52B): disrupting interaction strength
Substance: Acyltransferase PGAP2 (Homo sapiens) (from UniProt Q9UHJ9-5) T160I
